{"source": "paper PMC5993284", "about": "“Peptide inhibitors of the anaphase promoting-complex that cause sensitivity to microtubule poison” (PLoS ONE, 2018)", "molecules": {"B1": {"name": "PQ65: 65 amino acid residue peptide called PQ65 (Cdc20 169–232) (peptide, UniProt P26309 169-232, looked up, fragment)", "chain": "PPNASPISHLRAQTKIVFKQNVAEACGLDMNKRILQYMPEPPKCSSLRQKSYIMKKRTHYSYQQ"}}, "key": {"[1]": {"system": "budding yeast Saccharomyces cerevisiae cells", "assay": "Benomyl sensitivity upon over expression in vivo (colony numbers per plate)", "assay_type": "cell-based", "conditions": "for benomyl sensitivity on over expression (in words): pGAL1-10 over expression with N-terminal NLS, 12.5 μg/mL benomyl, average colony numbers per plate, 5 replicates; for effect of over expression on colony number without benomyl (in words): pGAL1-10 over expression, galactose, no benomyl", "description": "For the production of high quality DNA for in vitro transcription/translation E. coli were grown in 50 mL LB containing 100 μg/mL ampicillin for 12–16 hours at 37 °C. Purified plasmid DNA, which was dissolved with 50 μL ddH2O or DEPC (diethyl pyrocarbonate)-treated water, was measured at OD260/280 and stored at -20 °C (Bioman, Inc., Taiwan). All mutant allele expression plasmids were constructed employing site-directed mutagenesis following the manufacturer’s protocol (Stratagene, USA). Yeast were cultured under standard conditions. For large-scale yeast cultures to purify APC/C, yeast were cultured overnight in 10 mL YPD medium (20 g Dextrose, 20 g peptone, and 10 g yeast extract per liter) at 30 °C. 1.5 L of YPD medium in two Fernbach flasks was inoculated with 1 mL overnight culture and supplemented with 100 μg/mL ampicillin and 100 μg/mL streptomycin to prevent bacterial growth. Cell cycle arrest, collection of yeast cells and yeast cell extractions were all performed as previously described.\nThere is a long-term interest in identifying APC/C inhibitors that give rise to sensitivity to microtubule poisons in vivo. To determine if a Cdc20 Mad2-binding motif peptide was sufficient to induce a microtubule poison sensitivity phenotype in vivo, the DQ36 and PQ65 peptides were over expressed under the control of a galactose inducible pGAL1-10 promoter that had been integrated as single copy into the yeast genome together with the peptide open reading frames (ORF). The expressed proteins were engineered to contain an N-terminal nuclear localization signal ([…]) along with a short amino acid ‘linker’ in order to target the nuclear pool of the APC/C because yeast undergo a closed mitosis without nuclear envelope breakdown. […] This phenotype was suppressed by mutating the yeast KILR-motif residues RILQY to AAAAA (Fig 7B) providing a direct correlation between our observed in vitro APC/C inhibition that requires the yeast KILR-motif RILQY residues and an in vivo microtubule poison sensitivity phenotype."}, "APC/C^Cdc20": {"target": "T1, APC/C^Cdc20 (Saccharomyces cerevisiae, UniProt P16522+P53886)", "T1 construct": "constructed within full-length Cdc20 by site-directed mutagenesis for analysis in vitro in the APC/C^Cdc20 assay; The APC/C was purified for enzyme assays from 1 mL of TAP-tagged Cdc16 yeast extract (SCSY51); made in house; host or cells: Cdc20: in vitro transcription/translation in rabbit reticulocyte lysate, used unpurified; APC/C: S. cerevisiae strain SCSY51 (Cdc16-TAP) extract, captured on IgG magnetic beads", "assay": "biochemical", "assay_type": "biochemical", "conditions": "for inhibition of APC/C^Cdc20 activity (in words): 220 μM peptide, time course 0-60 minutes, vs buffer only, n = 3", "method_in_brief": "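Bead-bound TAP-Cdc16 yeast APC/C was mixed with IVT-made Cdc20 or Cdh1, pre-incubated 1 h at rt with checkpoint proteins or inhibitor peptides, plus pre-charged E1/E2/ATP/ubiquitin and ^35S-Pds1 in 20 mM HEPES pH 8.0, 100 mM NaCl, 1 mM MgCl2. Time points were stopped in SDS buffer and resolved by SDS-PAGE.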"}}, "note": "Entries after “also recorded” stand apart in the source; their conditions may differ. Ends that are not written are not given here. * marks the point of attachment. Biotin = O=C1N[C@H]2[C@H](CS[C@H]2CCCCC(=O)*)N1"}
{"molecule": "DQ36-mut1: DQ36-mut1 where all 5 RILQY residues were changed to alanine AAAAA (Biotin-DMNKAAAAAMPEPPKCSSLRQKSYIMKKRTHYSYQQ)", "values": [{"measurement": "benomyl sensitivity on over expression (in words)", "setting": "[1]", "value": "The benomyl sensitivity phenotype was not observed"}, {"measurement": "effect of over expression on colony number without benomyl (in words)", "setting": "[1]", "value": "no significant difference in colony numbers per plate in the absence of benomyl"}, {"measurement": "inhibition of APC/C^Cdc20 activity (in words)", "setting": "APC/C^Cdc20; 35S-Pds1 substrate", "value": "The RILQY residues of the yeast KILR-motif were observed to be essential for full inhibition"}]}
{"molecule": "B1", "values": [{"measurement": "benomyl sensitivity on over expression (in words)", "setting": "[1]", "value": "induced a significant sensitivity to benomyl; also recorded: leads to sensitivity to the microtubule poison benomyl"}, {"measurement": "effect of over expression on colony number without benomyl (in words)", "setting": "[1]", "value": "no change in colony number or colony morphology was observed; also recorded: no significant difference in colony numbers per plate in the absence of benomyl"}, {"measurement": "inhibition of APC/C^Cdc20 activity (in words)", "setting": "APC/C^Cdc20; 35S-Pds1 substrate", "value": "sufficient to inhibit APC/C^Cdc20 activity; also recorded: A significant level of APC/C^Cdc20 inhibition was observed"}, {"measurement": "overall APC/C inhibition (in words)", "setting": "APC/C^Cdc20; discussion/conclusion statement", "value": "displayed the highest level of APC/C inhibition in vitro"}, {"measurement": "IC50", "setting": "APC/C^Cdc20; peptide titration dilution series, 35S-Pds1 substrate, estimated/approximate, read-out: IC50", "value": "< 50", "unit": "µM"}]}
